Measured values reported in US12371675B2, “Process and microorganism for synthesis of adipic acid from carboxylic acids” (THE GOVERNING COUNCIL OF THE UNIVERSITY OF TORONTO, priority 2015, dated 2025).

Test: AT activity coupled with alanine and glutamate dehydrogenases
Format: biochemical
Conditions: 10 mM adipaldehyde, alanine and glutamate amino-donors; ND = no activity was detected

Molecule | Adipaldehyde 10 mM U/mg
PP4421: aminotransferase (AT) from Pseudomonas putida (protein) MDKQKQDLISQQDRGAVLHPFTQLKDFASGKAGDPTIIETAKGITITDATGREYIDGFAGLYCMNVGYGRTEVAEAISKQAHKLAYYHTYAAHTTEELARLSDRLVKMAPGKMSKVFYGMSGSDANETQAKLVWYYNNLRGKPNKKKIIARERGYHGCSVVSGSMTGMSFYHDHMDLPIAGILRTGAPHYYWGAEPGETELEFSARRARELEELILREGPDTIGAFIAEPVLGTGGITPPPEGYWAAVQPVLKKYDILLIADEVITGFGRTGAMFGCDKYGIEPDLITVAKGLTSAYAPLSASIVGEKVYKVMEEGADRVGAFSHGYTYSGHPIGVAAANAVLDIVEGENIPAHVDKVGQYFQKSMQETFSSLPIVGEVRGVGMMAAIEFVADPATKKRFDPALKVGARISKAARDRNLIARAMPHGEILGFAPPLVTTEQEVDRIISIAHEAVLSVLDELKV | 0.061 ± 0.001 U/mg
SAV2583: aminotransferase (AT) from Streptomyces avermitilis (protein) MSALPQERRVVTAIPGPKSQELQARRTAVVAAGVGSVLPVFTTRAGGGIIEDVDGNRLIDFGSGIAVTSVGASAEAVVRRASAQLQDFTHTCFMVTPYEGYVAVAEALAELTPGDHAKKSALFNSGAEAVENAVKIARAYTKRQAVVVFDHGYHGRTNLTMALTAKNMPYKNGFGPFAPEVYRVPVAYGYRWLTGPENAGAEASAQAIDMINKQIGADNVAAIIIEPVLGEGGFIEPAKGFLPAISKFAKDNGIVFVADEIQSGFCRTGQWFACEDEGIVPDLITTAKGIAGGLPLAAVTGRAEIMDAAHAGGLGGTYGGNPVACAGALGAIETMKELDLNAKAKNIEAVMKARLGAMAEKFDIIGDVRGRGGMIAIELVKDRDTKEPNPEAAGALAKACHQEGLLVLTCGTYGNVLRFLPPLVIGEDLLNEGLDIIEQAFSRI | 0.136 ± 0.011 U/mg
SCO5676: aminotransferase (AT) from Streptomyces coelicolor (protein) MTALPQERRVVTAIPGPKSQELQARRTAVVAQGVGSTLPVFVARAGGGVIEDVDGNRLIDFGSGIAVTSVGASAEAVVRKASAQLADFTHTCFMVTPYEGYVAVAEALAELTPGDHAKKSALFNSGAEAVENAVKIARAYTKRQAVVVFDHGYHGRTNLTMALTAKNMPYKHGFGPFAPEVYRVPVAYGYRWPTGAENAGPEAAAQAIDQISKQVGAENVAAVIIEPVLGEGGFIEPAKGFLPAIREFASDNGIVFVADEIQSGFCRTGQWFACEDEGIVPDLITTAKGIAGGLPLSAVTGRAEIMDAAHSGGLGGTYGGNPVACAGALGAIETMKELDLNARAKDIEAVMKSRLAAMAEKFDVIGDVRGRGAMIAIELVKDRETKEPNPAATAALAKACHQEGLLVLTCGTYGNVLRFLPPLVIGEDLLNEGLDIIEQAFTRV | 0.084 ± 0.015 U/mg
SM2011_c01534: aminotransferase (AT) from Sinorhizobium meliloti (protein) MSNRLNTTPNDLSAFWMPFTANRQFKKEPRLFVGAKDMYYTTHDGRTVLDGTAGLWCVNAGHCRPKITEAIREQAGELDYAPAFQLGHPKAFELANRLVDIAPEGMNHVLYTNSGSESVDTALKVALAYHRAKGNGSRFRLIGRERGYHGVNFGGISVGGIVANRKMFGTLLTGVDHLPHTHLPAKNAFSRGEPEHGADLAAELERIVTLHDASTVAAVIVEPVAGSTGVLIPPKGYLQKLREICTKHGILLIFDEVITGYGRLGTPFAAQYFDVKPDIITTAKGLTNGVIPMGAVFVTSEIHDAFMTGPEHLIEFFHGYTYSGNPIASAAALGTLDTYREEGLLTRAAELAPYWEEALHSLKDCPHVIDIRNIGLIGAVELEPIAGEPTKRAFSAFLKAYEKGLLIRTTGDIIALSPPLIIEKRQIDELFDKLRDVLKNNI | 0.021 ± 0.003 U/mg
SM2011_c04388: aminotransferase (AT) from Sinorhizobium meliloti (protein) MNAHNKPNAPVLDSYWMPFTANRQFKAAPRLLAAAEGMHYTSVDGRTVLDGTAGLWCVNAGHGRRQIAAAVERQLSTMDFAPSFQMGHPIAFDFAERLAEIAPGPAGAKLDRVFFTGSGSESVDTALKMALAYQRSIGQGTRTRLIGRERGYHGVGFGGISVGGIVNNRRVFPQLPGSDHLRHTHDPAKNAFVKGQPEHGAELADDLERLVALHGAETIAACIVEPVAGSTGVLIPPKGYLERLRAICDKHGILLIFDEVITGFGRLGAAFATDYFGVTPDIVTTAKGLTNGAIPMGAVFASRKVHDALMHGPEGQIELFHGYTYSGHPAACAAGIATLDIYRDEGLMTRAAEIEGDWHEAMHSMKGLPHVIDIRTIGLIAGIELQSRDGAPGARAYDVFVDCFERGLLIRVTGDIIAFSPPLIAEKQHFGEIVSILADALKRVK | 0.152 ± 0.001 U/mg
SM2011_b20379: aminotransferase (AT) from Sinorhizobium meliloti (protein) MNDRPNSLHALDKQSLVHPYTNLAVHQETGPHVITGGDGIYVVDDEGKRYIEGLAGLFCAGLGFSEQRLVEAATRQLKTMPFYHSFAHKSTEPGIRLAEKLLSIAPVPMSKVFFAGSGSEANDTAIKLIWYYNNALGRPEKKKIISRRKAYHGVTVATASLTGLPFNHRDFDLPIANILHTDCPHYWRFAETGETEEDFATRMANNLEAIILEEGPETIAAFFAEPVMVSGGVITPPKTYFEKVQAVLRKYDILLIADEVICGFGRTGNMFGSETYGLKPDMISCAKQLSAAYMPISALMINAKIADALVDQSRKIGTFSHGFTYGGHPVAAAVALEALTIYEEIDIVGHVRSVAPAFQDRVRKLGEHPLIGEARGVGLVAGLEFVKDKATRENFPPAWQVANQAGKFATARGVLTRGLGDMVSLCPAMIIDDEQIDDLMTRMGLALDDTLAWARAQGHVG | 0.106 ± 0.008 U/mg

Test: AR reductase activity, NAD(P)H oxidation at 340 nm
Format: biochemical
Conditions: 10 mM, 1.8% DMSO; ND = no activity was detected
Experimental: Enzyme activity of purified ARs was measured spectrophotometrically in 96-well plates Reaction mixtures contained 100 mM HEPES buffer (pH 7.5), 0.4 mM NADH/NADPH, 10 mM adipaldehyde or butylaldehyde, and proteins (10 μg for adipaldehyde screen, 2 μg for butyraldehyde screen) in a final volume of 200 μL Reaction mixture for adipaldehyde screening contained 1.8% DMSO. Enzyme reactions were monitored by following the decrease in absorbance at 340 nm (ε340 nm=6,220/M·cm) due to oxidation of NAD(P)H to NAD(P)+.

Molecule | Activity [U/mg protein] Adipaldehyde
SCO0229: aldehyde reductase (AR) from Streptomyces coelicolor (protein) MQRQNWLITGVSTGLGRAFAQAALSAGHTVVGTVRSENDVRAFEELGPGHAHGRILDVTDGGAVNGVVAEVERSVGPLDVVVANAGYGLEGTFEETPLAEVRRQFDVNVFGAMATLQAALPHMRARRRGHLMAVTSMGGLMAVPGMSAYCGSKFALEGILEALGKEVAQFGIHVTAIEPGSFRTDWAGRSMTRAARTVADYDDLFAPIREARQKASGNQLGNPAKAGEAVVHITSVDQPPAHLVLGSDALRLVTAARTAVDEDIRAWEALSRTTDFPQGAQL | 0.362 ± 0.05 U/mg protein

Same assay, conditions: 10 mM; ND = no activity was detected

Molecule | Activity [U/mg protein] Butyraldehyde
RHA1_ro08443: aldehyde reductase (AR) from Rhodococcus jostii (protein) MPEIVKFEMPRVETVVQGVGAVREIGAELDRRDLKRVFLVTGHSVGSSEAFAALASDLGDRVVGIFDQVKAHNPVELIVELITAAKSAQAEAFVAVGGGSPVDAAKLAAIGLCEGSESVEDLARNYLVFEYPNTIHQKPLTGTPMPVFAVPTTLSAAEWDGFAGSVDHTRDTKDLTVYLEATPQVVFLDPEFCAHTPRDLWATTGVRALDHAVETAYAKNAHPFTTALANGALTMLAENLPRSVKDPHDYDAALKCLEAAWMSIIGVHNVSLGLSHAIGHQLGAVGIPHGVTSCIMLPHVMRFLEPVTSAEQARMAQSLAQVQGDGEDLPAADRLERILDELGVPRRVSEFGVGRDKMDGVARATLGDIVVRESPRPVDETVVYGLLETVW | 0.188 ± 0.142 U/mg protein
RPA0021: aldehyde reductase (AR) from Rhodopseudomonas palustris (protein) MTPRNATVAVIGAGDYIGAEIAKKFAAEGFTVFAGRRNGEKLAPLVAEIEAAGGRIVARSLDARNEDEVTAFLNAADAHAPLEVTIFNVGANVNFPILETTDRVFRKVWEMACWAGFVSGRESARLMLAHGQGKIFFTGATASLRGGSGFAAFASAKFGLRAVAQSMARELMPKNIHVAHLIIDSGVDTAWVRERREQMFGKDALANPDLLMPPAAVAGAYWQLYQQPKSAWTFEMEIRPYGEKW | 0.116 ± 0.031 U/mg protein
SCO0229: aldehyde reductase (AR) from Streptomyces coelicolor (protein) MQRQNWLITGVSTGLGRAFAQAALSAGHTVVGTVRSENDVRAFEELGPGHAHGRILDVTDGGAVNGVVAEVERSVGPLDVVVANAGYGLEGTFEETPLAEVRRQFDVNVFGAMATLQAALPHMRARRRGHLMAVTSMGGLMAVPGMSAYCGSKFALEGILEALGKEVAQFGIHVTAIEPGSFRTDWAGRSMTRAARTVADYDDLFAPIREARQKASGNQLGNPAKAGEAVVHITSVDQPPAHLVLGSDALRLVTAARTAVDEDIRAWEALSRTTDFPQGAQL | 0.892 ± 0.847 U/mg protein
SFyv_1886: aldehyde reductase (AR) from Shigella flexneri (protein) MHYQPKQDLLNDRIILVTGASDGIGREAAMTYARYGATVILLGRNEEKLRQVASHINEETGRQPQWFILDLLTCTSENCQQLAQRIVVNYPRLDGVLHNAGLLGDVCPMSEQNPQVWQDVMQINVNATFMLTQALLPLLLKSDAGSLVFTSSSVGRQGRANWGAYAASKFATEGMMQVLADEYQQRLRVNCINPGGTRTAMRASAFPTEDPQKLKTPADIMPLYLWLMGDDSRRKTGMTFDAQPGRKPGISQ | 0.124 ± 0.042 U/mg protein
TM_0111: aldehyde reductase (AR) from Thermotoga maritima (protein) MFKISFYLPTEIIFRVGAVDELEERAKKLGKKALIVTGRSSTKKTGLLQRVVDLLKKAGVESFVFDKIVPNPISDHVDEAAEIVRKEKIDFIIGLGGGSPIDSAKAISITAPNEGKFWDYVPVGGGKIPEKSIPVVAIPTTHGTGTEADPFAVITNPQTKEKVGIGYRNTFPVLSLVDPEVMKTLPKDQTAYTSMDAFYHAIEAFLNVNANPYSDVLALDAMKRIVTYLPVAYENGEDMEARTNLAWASTEAGITETLTGVIANHALEHGLSGFYPEITHGLGLCITGPYLFEYIFDHAYERLAIVGREVFGVYETDDRKAGRLAIKKLRDFQEMFGLNKRLSELGVKKEDIPKMAETGYRILNGVVVVTPGNLTAKDMEEIFNRCY | 1.055 ± 0.43 U/mg protein
Atu2528: aldehyde reductase (AR) from Agrobacterium fabrum (protein) MQPFVYMAAPARIVFSAGSSADVAEEIRRLGLSRALVLSTPQQKGDAEALASRLGRLAAGVFSEAAMHTPVEVTKTAVEAYRAAGADCVVSLGGGSTTGLGKAIALRTDAAQIVIPTTYAGSEVTPILGQTENGVKTTMRGPEILPEVVIYDAELTLGLPVAISMTSGLNAMAHAAEALYARDRNPIASMMAVEGLRAMIEALPVVRQAPHDIGARETALYGAWLCGTVLGAVGMSLHHKLCHTLGGSLDLPHAETHAVLLPHTIAYVEEAAPNLLAPLAALVGGRAGAGLFDFAARLGAPSSLAALGVGADDLDPMAELATANPYWCPRPIEKTAIRDLLQRAFEGARPA | 0.110 ± 0.089 U/mg protein
